Measured values as given in patent publication US20190022211A1 (CELLTRION, published 2019).
Where “and” joins values, the source holds several entries; their conditions need not be identical. Equal entries are not always repeated.

Legend:
Assay in all cases: cell-based or functional assay
[1] = target: G protein of rabies virus Bat Ef (Bat, Pennsylvania, USA), on virus (rabies virus)
[2] = target: G protein of rabies virus Dog Tun (Dog, Tunisia), on virus (rabies virus)
[3] = target: G protein of rabies virus TN-269 (Bat, Tennessee, USA), on virus (rabies virus)
[4] = target: G protein of rabies virus TX SK 4384 (Skunk, Texas, USA), on virus (rabies virus)
[5] = target: G protein of rabies virus VA 399 (Bat, Virginia, USA), on virus (rabies virus)
[6] = target: G protein of rabies virus TN 132 (Bat, Tennessee, USA), on virus (rabies virus)
[7] = target: G protein of rabies virus RAC (Raccoon, Georgia, USA), on virus (rabies virus)
[8] = target: G protein of rabies virus TXFX (Gray fox, TX), on virus (rabies virus)
[9] = target: G protein of rabies virus C1434 (Bat, Alabama, USA), on virus (rabies virus)
[10] = target: G protein of rabies virus AK FX (Arctic Fox, Alaska, USA), on virus (rabies virus)
[11] = target: G protein of rabies virus AZ Bat (Bat, Arizona), on virus (rabies virus)
[12] = target: G protein of rabies virus China dog 2005 (Dog, China), on virus (rabies virus)
[13] = target: G protein of Wu ABLV (Australian bat lyssa, Genotype 7), on virus (Australian bat lyssa, Genotype 7)
[14] = target: G protein of rabies virus Mongoose PR (Mongoose, Puerto-Rico), on virus (rabies virus)
[15] = target: G protein of rabies virus NC SK (Skunk, Wisconsin, USA), on virus (rabies virus)
[16] = target: G protein of rabies virus Sri Lanka (Cow, Sri Lanka), on virus (rabies virus)
[17] = target: G protein of rabies virus Dog Arg (Dog, Argentina), on virus (rabies virus)
[18] = target: G protein of rabies virus DR MX (Bat, Mexico), on virus (rabies virus)
[19] = target: G protein of rabies virus Gabon dog (Dog, Gabon), on virus (rabies virus)
[20] = target: G protein of rabies virus Myotis (Bat, Washington, USA), on virus (rabies virus)
[21] = target: G protein of rabies virus Dog thai (Dog, Thailand), on virus (rabies virus)
[22] = target: G protein of rabies virus MI1625 (Bat, Tennessee, USA), on virus (rabies virus)
[23] = target: G protein of rabies virus RVHN (Human (ex, wolf), Russia, Arctic), on virus (rabies virus)
[24] = target: G protein of rabies virus TX Coyote (Coyote, Texas, USA), on virus (rabies virus)

B1: antibody 1 (antibody, V domains shown)
VH: VQLLQESGPGLAKPSETLSLICTVSGGSISRRRDYWGWIRQPPGRGLEWIGSFFHRGSTYYNPSLESRVSISVDPSKNQFSLHLSSVTVADTAVYYCARHPSTPFAEYLLLPDAFDSWGQGTLVTVSS
VL: DIVMTQSPATLSVSPGERATLSCRASQSVRSSLAWYQQRPGQAPRLLISGASTRATDIPARLSGSGSGTEFTLTVSSLQSEDFAVYYCQQYSDWPLTFGGGTKVEIKR
neutralizing activity (RFFIT) [1]: 1.05 IU/mL and 5260 IU/mg
neutralizing activity (RFFIT), Titer [1]: 50
neutralizing activity (RFFIT) [2]: 2.3 IU/mL and 2300 IU/mg
neutralizing activity (RFFIT), Titer [2]: 230
neutralizing activity (RFFIT) [3]: 1.16 IU/mL and 5800 IU/mg
neutralizing activity (RFFIT), Titer [3]: 145
neutralizing activity (RFFIT) [4]: 1070 IU/mg and 0.21 IU/mL
neutralizing activity (RFFIT), Titer [4]: 75
neutralizing activity (RFFIT) [5]: 0.56 IU/mL and 2780 IU/mg
neutralizing activity (RFFIT), Titer [5]: 10
neutralizing activity (RFFIT) [6]: 2 IU/mL and 10000 IU/mg
neutralizing activity (RFFIT), Titer [6]: 56
neutralizing activity (RFFIT) [7]: 0.7 IU/mL and 3520 IU/mg
neutralizing activity (RFFIT), Titer [7]: 95
neutralizing activity (RFFIT) [8]: 0.41 IU/mL and 2070 IU/mg
neutralizing activity (RFFIT), Titer [8]: 56
neutralizing activity (RFFIT) [9]: 0.51 IU/mL and 2530 IU/mg
neutralizing activity (RFFIT), Titer [9]: 19
neutralizing activity (RFFIT) [10]: 0.44 IU/mL and 2220 IU/mg
neutralizing activity (RFFIT), Titer [10]: 60
neutralizing activity (RFFIT) [11]: 1.1 IU/mL and 1090 IU/mg
neutralizing activity (RFFIT), Titer [11]: 125
neutralizing activity (RFFIT) [12]: 0.43 IU/mL and 2140 IU/mg
neutralizing activity (RFFIT), Titer [12]: 12
neutralizing activity (RFFIT) [13]: 0.38 IU/mL and 1920 IU/mg
neutralizing activity (RFFIT), Titer [13]: 250
neutralizing activity (RFFIT) [14]: 0.39 IU/mL and 1930 IU/mg
neutralizing activity (RFFIT), Titer [14]: 54
neutralizing activity (RFFIT) [15]: 2.24 IU/mL and 2240 IU/mg
neutralizing activity (RFFIT), Titer [15]: 280
neutralizing activity (RFFIT) [16]: 0.43 IU/mL and 2160 IU/mg
neutralizing activity (RFFIT), Titer [16]: 54
neutralizing activity (RFFIT) [17]: 0.36 IU/mL and 1810 IU/mg
neutralizing activity (RFFIT), Titer [17]: 145
neutralizing activity (RFFIT) [18]: 2.4 IU/mL and 2380 IU/mg
neutralizing activity (RFFIT), Titer [18]: 250
neutralizing activity (RFFIT) [19]: 0.41 IU/mL and 2030 IU/mg
neutralizing activity (RFFIT), Titer [19]: 65
neutralizing activity (RFFIT) [20]: 1.64 IU/mL and 8210 IU/mg
neutralizing activity (RFFIT), Titer [20]: 230
neutralizing activity (RFFIT) [21]: 2.3 IU/mL and 2290 IU/mg
neutralizing activity (RFFIT), Titer [21]: 320
neutralizing activity (RFFIT) [22]: 0.39 IU/mL and 1960 IU/mg
neutralizing activity (RFFIT), Titer [22]: 11
neutralizing activity (RFFIT) [23]: 0.4 IU/mL and 2000 IU/mg
neutralizing activity (RFFIT), Titer [23]: 54
neutralizing activity (RFFIT) [24]: 0.33 IU/mL and 1650 IU/mg
neutralizing activity (RFFIT), Titer [24]: 56

B2: antibody 2 (antibody, V domains shown)
VH: EVQLVESGAEVKKPGASVKVSCKASGYTFTSYDISWVRQAPGQGLEWMGWISTYKGNTNFAQKFQDRVTLTTDTSTTTAYMELRSLTSDDTAVYYCARAKSHPFYDFWSAYYVPGAFDIWGQGTVVTVSS
VL: not shown
neutralizing activity (RFFIT) [1]: 1.05 IU/mL and 5260 IU/mg
neutralizing activity (RFFIT), Titer [1]: 50
neutralizing activity (RFFIT) [2]: 2.7 IU/mL and 2700 IU/mg
neutralizing activity (RFFIT), Titer [2]: 270
neutralizing activity (RFFIT) [3]: 3.12 IU/mL and 15600 IU/mg
neutralizing activity (RFFIT), Titer [3]: 390
neutralizing activity (RFFIT) [4]: 3570 IU/mg and 0.71 IU/mL
neutralizing activity (RFFIT), Titer [4]: 250
neutralizing activity (RFFIT) [5]: 2.78 IU/mL and 13900 IU/mg
neutralizing activity (RFFIT), Titer [5]: 50
neutralizing activity (RFFIT) [6]: 10 IU/mL and 50000 IU/mg
neutralizing activity (RFFIT), Titer [6]: 280
neutralizing activity (RFFIT) [7]: 1.07 IU/mL and 5370 IU/mg
neutralizing activity (RFFIT), Titer [7]: 145
neutralizing activity (RFFIT) [8]: 1.85 IU/mL and 9260 IU/mg
neutralizing activity (RFFIT), Titer [8]: 250
neutralizing activity (RFFIT) [9]: 0.96 IU/mL and 4800 IU/mg
neutralizing activity (RFFIT), Titer [9]: 36
neutralizing activity (RFFIT) [10]: 2 IU/mL and 10000 IU/mg
neutralizing activity (RFFIT), Titer [10]: 270
neutralizing activity (RFFIT) [11]: 11.3 IU/mL and 11300 IU/mg
neutralizing activity (RFFIT), Titer [11]: 1300
neutralizing activity (RFFIT) [12]: 0.46 IU/mL and 2320 IU/mg
neutralizing activity (RFFIT), Titer [12]: 13
neutralizing activity (RFFIT) [13]: 0.68 IU/mL and 3380 IU/mg
neutralizing activity (RFFIT), Titer [13]: 440
neutralizing activity (RFFIT) [14]: 0.4 IU/mL and 2000 IU/mg
neutralizing activity (RFFIT), Titer [14]: 56
neutralizing activity (RFFIT) [15]: 2.16 IU/mL and 2160 IU/mg
neutralizing activity (RFFIT), Titer [15]: 270
neutralizing activity (RFFIT) [16]: 0.4 IU/mL and 2000 IU/mg
neutralizing activity (RFFIT), Titer [16]: 50
neutralizing activity (RFFIT) [17]: 0.43 IU/mL and 2120 IU/mg
neutralizing activity (RFFIT), Titer [17]: 170
neutralizing activity (RFFIT) [18]: 1.7 IU/mL and 1710 IU/mg
neutralizing activity (RFFIT), Titer [18]: 180
neutralizing activity (RFFIT) [19]: 1.06 IU/mL and 5310 IU/mg
neutralizing activity (RFFIT), Titer [19]: 170
neutralizing activity (RFFIT) [20]: 2 IU/mL and 10000 IU/mg
neutralizing activity (RFFIT), Titer [20]: 280
neutralizing activity (RFFIT) [21]: 9.3 IU/mL and 9290 IU/mg
neutralizing activity (RFFIT), Titer [21]: 1300
neutralizing activity (RFFIT) [22]: 2.5 IU/mL and 12500 IU/mg
neutralizing activity (RFFIT), Titer [22]: 70
neutralizing activity (RFFIT) [23]: 0.31 IU/mL and 1560 IU/mg
neutralizing activity (RFFIT), Titer [23]: 42
neutralizing activity (RFFIT) [24]: 1 IU/mL and 5000 IU/mg
neutralizing activity (RFFIT), Titer [24]: 170
